Assay results taken from publication doi:10.1101/2021.01.13.426456.

Key:
[1] = biological target: Bin1b SH3 domain (zebrafish); assay: ITC
[2] = biological target: Full length zebrafish Cavin4b (zebrafish) (UniProt Q5PQY9); assay: ITC

Substance: Cavin4b PRD peptide
- Kd [1]: 61.7 µM

Substance: Chikungunya virus (CHIKV) proline-rich peptide
- Kd [1]: 0.0889 µM

Substance: Bin1b SH3 domain (domain or fragment)
- Kd [2]: 55.9 µM
